Reference: FireProtDB (doi:10.1038/342296a0)

B1: Ribonuclease, P00648 (parent)
chain: MMKMEGIALKKRLSWISVCLLVLVSAAGMLFSTAAKTETSSHKAHTEAQVINTFDGVADYLQTYHKLPDNYITKSEAQALGWVASKGNLADVAPGKSIGGDIFSNREGKLPGKSGRTWREADINYTSGFRNSDRILYSSDWLIYKTTDHYQTFTKIR

Variants of: B1
Settings: Bacillus amyloliquefaciens; pH 6.3; 25 °C; Urea; Fluorescence; MES 19.3 mM; reversible: yes; structure 1BNI; whole UniProt chain shown

| Variant | ddG of mutation (higher = less stable) |
| --- | --- |
| MMKMEGIALKKRLSWISVCLLVLVSAAGMLFSTAAKTETSSHKAHTEAQVINTFDGVADYLQTYHKLPDNYIQKSEAQALGWVASKGNLADVAPGKSIGGDIFSNREGKLPGKSGRTWREADINYTSGFRNSDRILYSSDWLIYKTTDHYQTFTKIR [T73Q] | 1.72 kcal/mol |
| MMKMEGIALKKRLSWISVCLLVLVSAAGMLFSTAAKTETSSHKAHTEAQVINTFDGVADYLQTYHKLPDNYIEKSEAQALGWVASKGNLADVAPGKSIGGDIFSNREGKLPGKSGRTWREADINYTSGFRNSDRILYSSDWLIYKTTDHYQTFTKIR [T73E] | 0.05 kcal/mol |
| MMKMEGIALKKRLSWISVCLLVLVSAAGMLFSTAAKTETSSHKAHTEAQVINTFDGVADYLQTYHKLPDNYIAKSEAQALGWVASKGNLADVAPGKSIGGDIFSNREGKLPGKSGRTWREADINYTSGFRNSDRILYSSDWLIYKTTDHYQTFTKIR [T73A] | 2.11 kcal/mol |
| MMKMEGIALKKRLSWISVCLLVLVSAAGMLFSTAAKTETSSHKAHTEAQVINTFDGVADYLQTYHKLPDNYINKSEAQALGWVASKGNLADVAPGKSIGGDIFSNREGKLPGKSGRTWREADINYTSGFRNSDRILYSSDWLIYKTTDHYQTFTKIR [T73N] | 1.29 kcal/mol |
| MMKMEGIALKKRLSWISVCLLVLVSAAGMLFSTAAKTETSSHKAHTEAQVINTFDGVADYLQTYHKLPDNYIVKSEAQALGWVASKGNLADVAPGKSIGGDIFSNREGKLPGKSGRTWREADINYTSGFRNSDRILYSSDWLIYKTTDHYQTFTKIR [T73V] | 2.31 kcal/mol |
| MMKMEGIALKKRLSWISVCLLVLVSAAGMLFSTAAKTETSSHKAHTEAQVINTFDGVADYLQTYHKLPDNYIGKSEAQALGWVASKGNLADVAPGKSIGGDIFSNREGKLPGKSGRTWREADINYTSGFRNSDRILYSSDWLIYKTTDHYQTFTKIR [T73G] | 1.58 kcal/mol |
| MMKMEGIALKKRLSWISVCLLVLVSAAGMLFSTAAKTETSSHKAHTEAQVINEFDGVADYLQTYHKLPDNYITKSEAQALGWVASKGNLADVAPGKSIGGDIFSNREGKLPGKSGRTWREADINYTSGFRNSDRILYSSDWLIYKTTDHYQTFTKIR [T53E] | 0.27 kcal/mol |
| MMKMEGIALKKRLSWISVCLLVLVSAAGMLFSTAAKTETSSHKAHTEAQVINGFDGVADYLQTYHKLPDNYITKSEAQALGWVASKGNLADVAPGKSIGGDIFSNREGKLPGKSGRTWREADINYTSGFRNSDRILYSSDWLIYKTTDHYQTFTKIR [T53G] | 1.34 kcal/mol |
| MMKMEGIALKKRLSWISVCLLVLVSAAGMLFSTAAKTETSSHKAHTEAQVINQFDGVADYLQTYHKLPDNYITKSEAQALGWVASKGNLADVAPGKSIGGDIFSNREGKLPGKSGRTWREADINYTSGFRNSDRILYSSDWLIYKTTDHYQTFTKIR [T53Q] | 1.87 kcal/mol |
| MMKMEGIALKKRLSWISVCLLVLVSAAGMLFSTAAKTETSSHKAHTEAQVINSFDGVADYLQTYHKLPDNYITKSEAQALGWVASKGNLADVAPGKSIGGDIFSNREGKLPGKSGRTWREADINYTSGFRNSDRILYSSDWLIYKTTDHYQTFTKIR [T53S] | 0.22 kcal/mol |
| MMKMEGIALKKRLSWISVCLLVLVSAAGMLFSTAAKTETSSHKAHTEAQVINAFDGVADYLQTYHKLPDNYITKSEAQALGWVASKGNLADVAPGKSIGGDIFSNREGKLPGKSGRTWREADINYTSGFRNSDRILYSSDWLIYKTTDHYQTFTKIR [T53A] | 2.53 kcal/mol |
| MMKMEGIALKKRLSWISVCLLVLVSAAGMLFSTAAKTETSSHKAHTEAQVINDFDGVADYLQTYHKLPDNYITKSEAQALGWVASKGNLADVAPGKSIGGDIFSNREGKLPGKSGRTWREADINYTSGFRNSDRILYSSDWLIYKTTDHYQTFTKIR [T53D] | -0.11 kcal/mol |
| MMKMEGIALKKRLSWISVCLLVLVSAAGMLFSTAAKTETSSHKAHTEAQVINNFDGVADYLQTYHKLPDNYITKSEAQALGWVASKGNLADVAPGKSIGGDIFSNREGKLPGKSGRTWREADINYTSGFRNSDRILYSSDWLIYKTTDHYQTFTKIR [T53N] | 1.27 kcal/mol |
